Two substances from patent publication US20180037641A1 can be followed below.

Test [1] deals with recombinant mouse tau, longest isoform mTau40 (432 aa) (mouse) (UniProt P10637). Put plainly: SPR (BIAcore 2000), tau immobilised on CM-5 chip, antibody injected 0.11-7.5 µg/ml, 1:1 Langmuir global fit.
In test [2] the target is recombinant human tau, longest isoform hTau40 (441 aa) (human) (UniProt P10636). The description is as above.
Test [3] deals with recombinant mouse tau, longest isoform mTau40 (432 aa) (mouse) (UniProt P10637). Kind of test: SPR (Biacore), tau immobilised on CM-5 chip, antibody injected 0.78-400 nM.
Test [4] concerns the target recombinant human tau, longest isoform hTau40 (441 aa) (human) (UniProt P10636). The test is described as above.
A further test deals with RD(LM)-YFP (UniProt P10636). Put plainly: cell-based or functional assay.
For test [5], the target named is tau RD aggregates passing between HEK293 cells in the propagation assay (RD(LM) and RD(ΔK) constructs). Put plainly: cell-based or functional assay.
The target of test [6] is P301S human tau, T34 isoform (1N4R), of P301S tg mice (line PS19) (human) (UniProt P10636). Put plainly: cell-based or functional assay.
In a further test the target is RD(LM)-HA (UniProt P10636). Kind of test: cell-based or functional assay.

pKd: −log10 of the molar value.

Sequence of recombinant mouse tau, longest isoform mTau40 (432 aa) (mouse) (P10637 other isoform, or with tags, fused parts or gaps limits assumed): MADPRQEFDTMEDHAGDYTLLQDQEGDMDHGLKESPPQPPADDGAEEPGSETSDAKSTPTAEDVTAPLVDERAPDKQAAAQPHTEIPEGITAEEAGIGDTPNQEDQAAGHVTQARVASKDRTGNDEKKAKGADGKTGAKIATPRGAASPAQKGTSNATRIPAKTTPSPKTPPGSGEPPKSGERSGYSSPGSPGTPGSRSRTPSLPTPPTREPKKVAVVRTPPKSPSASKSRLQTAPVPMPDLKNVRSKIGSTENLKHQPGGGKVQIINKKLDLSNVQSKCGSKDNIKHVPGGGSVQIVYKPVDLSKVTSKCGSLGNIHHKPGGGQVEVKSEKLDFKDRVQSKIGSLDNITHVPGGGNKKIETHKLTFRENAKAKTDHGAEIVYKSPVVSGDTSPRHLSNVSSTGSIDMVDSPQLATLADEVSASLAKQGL

For the substance HJ9.4 (antibody), the pKd in test [1] is 11.65; in test [2], 8.16; in test [3], 11.65; in test [4], 8.16. Also, the dissociation rate constant (koff) in test [1] came out at 5.1e-07 s⁻¹; in test [2], 0.00107 s⁻¹; in test [3], 5.1e-07 s⁻¹; in test [4], 0.00107 s⁻¹. In addition, the kon in test [1] is 228000 M⁻¹ s⁻¹; in test [2], 153000 M⁻¹ s⁻¹; in test [3], 228000 M⁻¹ s⁻¹; in test [4], 153000 M⁻¹ s⁻¹.

Regarding HJ9.3 (antibody), the pKd in test [1], in test [2], in test [3] and in test [4] was 10.00 each time. Further, the off-rate constant (koff) worked out at 9.16e-06 s⁻¹ in test [1], 7.51e-06 s⁻¹ in test [2], 9.16e-06 s⁻¹ in test [3] and 7.51e-06 s⁻¹ in test [4]. Further, the association rate constant (kon) in test [1] was 86100 M⁻¹ s⁻¹; in test [2], 75500 M⁻¹ s⁻¹; in test [3] it was 86100 M⁻¹ s⁻¹; in test [4], 75500 M⁻¹ s⁻¹. This substance gave a percentage of RD(LM)-YFP/mCherry dual positive cells (flow cytometry) in the test with RD(LM)-YFP of 1.31%. This substance also yielded a tau protein present in the cell medium (pull-down, Western blot) in test [5] of 10 fold. For the same substance, the antibody concentration that significantly blocked uptake and seeding activity in test [6] is 0.5 µg/mL. In the test with RD(LM)-HA, the RD(ΔK)-YFP in the insoluble pellet fraction (detergent fractionation, Western blot) worked out at 60 % decrease.
